Drawing on patent US20220356223A1, this text covers EC50, STAT5 phosphorylation, human CD4+CD25+ Treg cells (%-supernatant) for one substance.

The experiment deals with human high-affinity IL2 receptor (IL2Rαβγ) (human) (UniProt P01589). Description: cell-based or functional assay.
Sequence of UniProt P01589 (P01589 22-272, chain 1 of 3): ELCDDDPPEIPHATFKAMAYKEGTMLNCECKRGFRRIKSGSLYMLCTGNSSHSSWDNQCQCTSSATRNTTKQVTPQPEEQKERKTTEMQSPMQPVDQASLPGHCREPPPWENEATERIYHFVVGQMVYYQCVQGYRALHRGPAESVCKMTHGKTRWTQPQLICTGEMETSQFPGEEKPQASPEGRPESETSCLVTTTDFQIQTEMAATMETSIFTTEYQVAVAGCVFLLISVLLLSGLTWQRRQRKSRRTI
Sequence of UniProt P01589 (P14784 27-551, chain 2 of 3, further chain): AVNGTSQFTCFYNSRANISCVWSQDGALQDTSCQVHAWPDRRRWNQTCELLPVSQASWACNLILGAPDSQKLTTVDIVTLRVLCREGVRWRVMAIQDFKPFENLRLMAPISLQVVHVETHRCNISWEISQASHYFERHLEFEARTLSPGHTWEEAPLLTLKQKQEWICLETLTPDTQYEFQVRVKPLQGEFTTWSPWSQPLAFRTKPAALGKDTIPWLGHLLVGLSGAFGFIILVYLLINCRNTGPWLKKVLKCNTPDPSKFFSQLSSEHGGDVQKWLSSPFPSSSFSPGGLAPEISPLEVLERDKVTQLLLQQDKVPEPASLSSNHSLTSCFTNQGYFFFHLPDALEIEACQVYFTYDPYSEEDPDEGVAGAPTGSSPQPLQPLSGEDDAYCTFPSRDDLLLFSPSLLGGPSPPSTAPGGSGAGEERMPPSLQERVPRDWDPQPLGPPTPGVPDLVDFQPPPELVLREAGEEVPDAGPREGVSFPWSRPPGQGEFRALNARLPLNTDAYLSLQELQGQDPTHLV
Sequence of UniProt P01589 (P31785 23-369, chain 3 of 3, further chain): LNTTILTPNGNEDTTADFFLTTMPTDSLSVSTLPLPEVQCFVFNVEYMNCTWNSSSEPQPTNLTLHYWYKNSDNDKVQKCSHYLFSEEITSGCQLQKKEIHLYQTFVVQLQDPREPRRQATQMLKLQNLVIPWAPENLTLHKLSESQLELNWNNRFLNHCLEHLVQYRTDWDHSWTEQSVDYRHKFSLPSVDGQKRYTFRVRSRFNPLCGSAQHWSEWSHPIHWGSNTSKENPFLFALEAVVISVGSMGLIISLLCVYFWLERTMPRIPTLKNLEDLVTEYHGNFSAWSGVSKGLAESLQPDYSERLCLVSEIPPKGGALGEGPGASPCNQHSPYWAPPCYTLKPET

The substance hAlb-hIL2 (ligand) registered an EC50, STAT5 phosphorylation, human CD4+CD25+ Treg cells (%-supernatant) of 0.0311.
